First the molecules themselves.
B1: S. cerevisiae Abp1 (full length; SH3 domain 535-592 mutated) / Hua2 (parent complex)
chain 1: MALEPIDYTTHSREIDAEYLKIVRGSDPDTTWLIISPNAKKEYEPESTGSSFHDFLQLFDETKVQYGLARVSPPGSDVEKIIIIGWCPDSAPLKTRASFAANFAAVANNLFKGYHVQVTARDEDDLDENELLMKISNAAGARYSIQTSSKQQGKASTPPVKKSFTPSKSPAPVSKKEPVKTPSPAPAAKISSRVNDNNDDDDWNEPELKERDFDQAPLKPNQSSYKPIGKIDLQKVIAEEKAKEDPRLVQKPTAAGSKIDPSSDIANLKNESKLKRDSEFNSFLGTTKPPSMTESSLKNDDDKVIKGFRNEKSPAQLWAERKAKQNSGNAETKAEAPKPEVPEDEPEGEPDVKDLKSKFEGLAASEKEEEEMENKFAPPPKKSEPTIISPKPFSKPQEPVKAEEAEQPKTDYKKIGNPLPGMHIEADNEEEPEENDDDWDDDEDEAAQPPLPSRNVASGAPVQKEEPEQEEIAPSLPSRNSIPAPKQEEAPEQAPEEEIEEEAEEAAPQLPSRSSAAPPPPPRRATPEKKPKENPWATAEYDYDAAEDNELTFVENDKIINIEFVDDDWWLGELEKDGSKGLFPSNYVSLGN
chain 2: MQQTKFGKMYLDHDSVVEYSEDEIVEADRITLGYKKRLSMIENQMRHLLEDFSLDVQQIEPILADLQKYYDAFLQLLQKRNKSLQCKRSTHQPVPSPMNSQTSTNAKVNLSGKLMKFQLNSVQKFDEENILRILQNKIEFEHYFQIDKGKKQKVLLLAVYQCLNGPTRLHKVLNIEGIIHNNSIRTILGKQVSSSKWTVFLYDVKLVLLAHRQDVPNLETSKMIVRYGDLFPCALYFKDHTAY

Data on 75 variants can be found in PMC7954794 (2021).

Variants of B1 are the subject of the test. The test can be described thus: DHFR protein-fragment complementation in yeast (Abp1-DHFR F[1,2] x partner-DHFR F[3]), deep mutational scanning, second methotrexate selection vs reference; S. cerevisiae, DHFR-PCA selection in liquid with methotrexate at 30 C, two 72 h selections (the score uses the second); reference = the pre-selection culture.
As to chain 1 V554Y, the screen value is 0.89 DMS score: mean over two replicates of log2(f_test/f_ref + 0.5)/ln 2, minus the synonymous-codon median (not a log2 …. For chain 1 V554L, the screen value is -0.408 DMS score: mean over two replicates of log2(f_test/f_ref + 0.5)/ln 2, minus the synonymous-codon median (not a log2 ….

chain 1 V554R: the screen value was 0.925 DMS score: mean over two replicates of log2(f_test/f_ref + 0.5)/ln 2, minus the synonymous-codon median (not a log2 ….

Regarding chain 1 N592M, the screen value was 0.019 DMS score: mean over two replicates of log2(f_test/f_ref + 0.5)/ln 2, minus the synonymous-codon median (not a log2 …. For chain 1 N592T, the screen value is 0.35 DMS score: mean over two replicates of log2(f_test/f_ref + 0.5)/ln 2, minus the synonymous-codon median (not a log2 ….

As to chain 1 N592F, the screen value was 0.212 DMS score: mean over two replicates of log2(f_test/f_ref + 0.5)/ln 2, minus the synonymous-codon median (not a log2 …. In the case of chain 1 N592Q, the screen value was 0.855 DMS score: mean over two replicates of log2(f_test/f_ref + 0.5)/ln 2, minus the synonymous-codon median (not a log2 …. chain 1 N592A: the screen value was 0.381 DMS score: mean over two replicates of log2(f_test/f_ref + 0.5)/ln 2, minus the synonymous-codon median (not a log2 …. Consider chain 1 E563T, for which the screen value was -1.2 DMS score: mean over two replicates of log2(f_test/f_ref + 0.5)/ln 2, minus the synonymous-codon median (not a log2 ….

Turning to chain 1 E563D, the screen value is 0.0054 DMS score: mean over two replicates of log2(f_test/f_ref + 0.5)/ln 2, minus the synonymous-codon median (not a log2 …. For the variant chain 1 E563A, the screen value is -1.08 DMS score: mean over two replicates of log2(f_test/f_ref + 0.5)/ln 2, minus the synonymous-codon median (not a log2 …. As for chain 1 S579R, the screen value is 0.286 DMS score: mean over two replicates of log2(f_test/f_ref + 0.5)/ln 2, minus the synonymous-codon median (not a log2 …. Consider chain 1 S579Q, for which the screen value is 0.0179 DMS score: mean over two replicates of log2(f_test/f_ref + 0.5)/ln 2, minus the synonymous-codon median (not a log2 ….

With chain 1 L574M, the screen value was -0.568 DMS score: mean over two replicates of log2(f_test/f_ref + 0.5)/ln 2, minus the synonymous-codon median (not a log2 …. With chain 1 D557E, the screen value is -0.885 DMS score: mean over two replicates of log2(f_test/f_ref + 0.5)/ln 2, minus the synonymous-codon median (not a log2 …. Consider chain 1 D568G, for which the screen value was -2.49 DMS score: mean over two replicates of log2(f_test/f_ref + 0.5)/ln 2, minus the synonymous-codon median (not a log2 …. For the variant chain 1 D568A, the screen value was -1.81 DMS score: mean over two replicates of log2(f_test/f_ref + 0.5)/ln 2, minus the synonymous-codon median (not a log2 …. The same measure for chain 1 D544L: 0.763 DMS score: mean over two replicates of log2(f_test/f_ref + 0.5)/ln 2, minus the synonymous-codon median (not a log2 …; for chain 1 N556L: -0.482 DMS score: mean over two replicates of log2(f_test/f_ref + 0.5)/ln 2, minus the synonymous-codon median (not a log2 …. The same measure for chain 1 N556T: 0.279 DMS score: mean over two replicates of log2(f_test/f_ref + 0.5)/ln 2, minus the synonymous-codon median (not a log2 …; for chain 1 N556C: 0.444 DMS score: mean over two replicates of log2(f_test/f_ref + 0.5)/ln 2, minus the synonymous-codon median (not a log2 …; for chain 1 N556G: 0.625 DMS score: mean over two replicates of log2(f_test/f_ref + 0.5)/ln 2, minus the synonymous-codon median (not a log2 ….

On to chain 1 W536M, for which the screen value was -0.26 DMS score: mean over two replicates of log2(f_test/f_ref + 0.5)/ln 2, minus the synonymous-codon median (not a log2 …. As to chain 1 P535M, the screen value was 1.02 DMS score: mean over two replicates of log2(f_test/f_ref + 0.5)/ln 2, minus the synonymous-codon median (not a log2 …. On to chain 1 P535Q, for which the screen value was 1.11 DMS score: mean over two replicates of log2(f_test/f_ref + 0.5)/ln 2, minus the synonymous-codon median (not a log2 …. chain 1 P535W: the screen value was 0.493 DMS score: mean over two replicates of log2(f_test/f_ref + 0.5)/ln 2, minus the synonymous-codon median (not a log2 …. The same measure for chain 1 P535V: 1.51 DMS score: mean over two replicates of log2(f_test/f_ref + 0.5)/ln 2, minus the synonymous-codon median (not a log2 …; for chain 1 F564Q: -1.38 DMS score: mean over two replicates of log2(f_test/f_ref + 0.5)/ln 2, minus the synonymous-codon median (not a log2 …. Regarding chain 1 V565L, the screen value is -1.23 DMS score: mean over two replicates of log2(f_test/f_ref + 0.5)/ln 2, minus the synonymous-codon median (not a log2 …. Consider chain 1 V565Y, for which the screen value is -0.425 DMS score: mean over two replicates of log2(f_test/f_ref + 0.5)/ln 2, minus the synonymous-codon median (not a log2 …. The same measure for chain 1 V565D: -0.156 DMS score: mean over two replicates of log2(f_test/f_ref + 0.5)/ln 2, minus the synonymous-codon median (not a log2 …. Consider chain 1 V565W, for which the screen value is 0.964 DMS score: mean over two replicates of log2(f_test/f_ref + 0.5)/ln 2, minus the synonymous-codon median (not a log2 …. With chain 1 V565R, the screen value is -2.71 DMS score: mean over two replicates of log2(f_test/f_ref + 0.5)/ln 2, minus the synonymous-codon median (not a log2 …. With chain 1 N586D, the screen value is -1.73 DMS score: mean over two replicates of log2(f_test/f_ref + 0.5)/ln 2, minus the synonymous-codon median (not a log2 ….

Consider chain 1 L551M, for which the screen value was -0.642 DMS score: mean over two replicates of log2(f_test/f_ref + 0.5)/ln 2, minus the synonymous-codon median (not a log2 …. In the case of chain 1 I560S, the screen value was -0.964 DMS score: mean over two replicates of log2(f_test/f_ref + 0.5)/ln 2, minus the synonymous-codon median (not a log2 …. Take chain 1 I560N: the screen value is -0.729 DMS score: mean over two replicates of log2(f_test/f_ref + 0.5)/ln 2, minus the synonymous-codon median (not a log2 …. For chain 1 E555Q, the screen value is 0.0961 DMS score: mean over two replicates of log2(f_test/f_ref + 0.5)/ln 2, minus the synonymous-codon median (not a log2 …. For chain 1 E555P, the screen value was -0.507 DMS score: mean over two replicates of log2(f_test/f_ref + 0.5)/ln 2, minus the synonymous-codon median (not a log2 …. The same measure for chain 1 Y541E: -1.48 DMS score: mean over two replicates of log2(f_test/f_ref + 0.5)/ln 2, minus the synonymous-codon median (not a log2 …; for chain 1 Y541N: -1.91 DMS score: mean over two replicates of log2(f_test/f_ref + 0.5)/ln 2, minus the synonymous-codon median (not a log2 …; for chain 1 K580T: 0.165 DMS score: mean over two replicates of log2(f_test/f_ref + 0.5)/ln 2, minus the synonymous-codon median (not a log2 …. For chain 1 K580R, the screen value was 0.457 DMS score: mean over two replicates of log2(f_test/f_ref + 0.5)/ln 2, minus the synonymous-codon median (not a log2 …. Regarding chain 1 G578R, the screen value was -0.535 DMS score: mean over two replicates of log2(f_test/f_ref + 0.5)/ln 2, minus the synonymous-codon median (not a log2 ….

Turning to chain 1 G578Q, the screen value was -0.153 DMS score: mean over two replicates of log2(f_test/f_ref + 0.5)/ln 2, minus the synonymous-codon median (not a log2 ….

On to chain 1 A545Q, for which the screen value was 0.22 DMS score: mean over two replicates of log2(f_test/f_ref + 0.5)/ln 2, minus the synonymous-codon median (not a log2 …. For chain 1 L571Q, the screen value is -0.179 DMS score: mean over two replicates of log2(f_test/f_ref + 0.5)/ln 2, minus the synonymous-codon median (not a log2 …. In the case of chain 1 L571W, the screen value is -0.19 DMS score: mean over two replicates of log2(f_test/f_ref + 0.5)/ln 2, minus the synonymous-codon median (not a log2 ….

Consider chain 1 K558T, for which the screen value is 0.186 DMS score: mean over two replicates of log2(f_test/f_ref + 0.5)/ln 2, minus the synonymous-codon median (not a log2 ….

For chain 1 Y587V, the screen value is -1.17 DMS score: mean over two replicates of log2(f_test/f_ref + 0.5)/ln 2, minus the synonymous-codon median (not a log2 ….

In the case of chain 1 D548V, the screen value was 0.053 DMS score: mean over two replicates of log2(f_test/f_ref + 0.5)/ln 2, minus the synonymous-codon median (not a log2 …. For the variant chain 1 D548R, the screen value is -1.06 DMS score: mean over two replicates of log2(f_test/f_ref + 0.5)/ln 2, minus the synonymous-codon median (not a log2 …. On to chain 1 D548A, for which the screen value was 0.159 DMS score: mean over two replicates of log2(f_test/f_ref + 0.5)/ln 2, minus the synonymous-codon median (not a log2 …. Regarding chain 1 D548K, the screen value was -0.245 DMS score: mean over two replicates of log2(f_test/f_ref + 0.5)/ln 2, minus the synonymous-codon median (not a log2 …. As for chain 1 D567G, the screen value was -2.86 DMS score: mean over two replicates of log2(f_test/f_ref + 0.5)/ln 2, minus the synonymous-codon median (not a log2 …. With chain 1 D567E, the screen value is -1.62 DMS score: mean over two replicates of log2(f_test/f_ref + 0.5)/ln 2, minus the synonymous-codon median (not a log2 …. chain 1 D567V: the screen value was -2.81 DMS score: mean over two replicates of log2(f_test/f_ref + 0.5)/ln 2, minus the synonymous-codon median (not a log2 …. In the case of chain 1 A539C, the screen value is -0.17 DMS score: mean over two replicates of log2(f_test/f_ref + 0.5)/ln 2, minus the synonymous-codon median (not a log2 …. As for chain 1 K576G, the screen value was -0.96 DMS score: mean over two replicates of log2(f_test/f_ref + 0.5)/ln 2, minus the synonymous-codon median (not a log2 …. Turning to chain 1 G591Q, the screen value was 0.531 DMS score: mean over two replicates of log2(f_test/f_ref + 0.5)/ln 2, minus the synonymous-codon median (not a log2 …. For the variant chain 1 N549G, the screen value is 1.33 DMS score: mean over two replicates of log2(f_test/f_ref + 0.5)/ln 2, minus the synonymous-codon median (not a log2 …. On to chain 1 N549H, for which the screen value was 0.106 DMS score: mean over two replicates of log2(f_test/f_ref + 0.5)/ln 2, minus the synonymous-codon median (not a log2 …. In the case of chain 1 N549A, the screen value is 2.13 DMS score: mean over two replicates of log2(f_test/f_ref + 0.5)/ln 2, minus the synonymous-codon median (not a log2 …. Consider chain 1 E540L, for which the screen value was -2.53 DMS score: mean over two replicates of log2(f_test/f_ref + 0.5)/ln 2, minus the synonymous-codon median (not a log2 …. Regarding chain 1 L582Y, the screen value was 0.369 DMS score: mean over two replicates of log2(f_test/f_ref + 0.5)/ln 2, minus the synonymous-codon median (not a log2 …. On to chain 1 S589C, for which the screen value is 0.299 DMS score: mean over two replicates of log2(f_test/f_ref + 0.5)/ln 2, minus the synonymous-codon median (not a log2 …. Take chain 1 S589W: the screen value was 0.0382 DMS score: mean over two replicates of log2(f_test/f_ref + 0.5)/ln 2, minus the synonymous-codon median (not a log2 ….

Take chain 1 D542G: the screen value is 0.784 DMS score: mean over two replicates of log2(f_test/f_ref + 0.5)/ln 2, minus the synonymous-codon median (not a log2 ….

In the case of chain 1 D542S, the screen value is 0.456 DMS score: mean over two replicates of log2(f_test/f_ref + 0.5)/ln 2, minus the synonymous-codon median (not a log2 …. Take chain 1 D542Q: the screen value was 0.542 DMS score: mean over two replicates of log2(f_test/f_ref + 0.5)/ln 2, minus the synonymous-codon median (not a log2 ….

Consider chain 1 E573C, for which the screen value is 0.625 DMS score: mean over two replicates of log2(f_test/f_ref + 0.5)/ln 2, minus the synonymous-codon median (not a log2 …. The same measure for chain 1 E573S: -0.47 DMS score: mean over two replicates of log2(f_test/f_ref + 0.5)/ln 2, minus the synonymous-codon median (not a log2 ….

Turning to chain 1 D566G, the screen value is -2.66 DMS score: mean over two replicates of log2(f_test/f_ref + 0.5)/ln 2, minus the synonymous-codon median (not a log2 …. The same measure for chain 1 D566T: -2.82 DMS score: mean over two replicates of log2(f_test/f_ref + 0.5)/ln 2, minus the synonymous-codon median (not a log2 ….

Take chain 1 Y543F: the screen value is 0.735 DMS score: mean over two replicates of log2(f_test/f_ref + 0.5)/ln 2, minus the synonymous-codon median (not a log2 ….
